# Assay results reported in US20190002571A1, “INHIBITION OF CCL5 LIGAND BINDING TO CCR5 RECEPTOR AND ALTERATION OF CCR5/CCL5 AXIS SIGNALING IN INFLAMMATION, CANCER, AUTOIMMUNE, AND OTHER CONDITIONS” (CytoDyn Inc., priority 2015, published 2019).
# B1: PRO 140: a known humanized monoclonal antibody CCR5 antagonist with anti-HIV properties (antibody, chains of the INN, looked up, V domains shown)
# VH: EVQLVESGGGLVKPGGSLRLSCAASGYTFSNYWIGWVRQAPGKGLEWIGDIYPGGNYIRNNEKFKDKTTLSADTSKNTAYLQMNSLKTEDTAVYYCGSSFGSNYVFAWFTYWGQGTLVTVSS
# VL: DIVMTQSPLSLPVTPGEPASISCRSSQRLLSSYGHTYLHWYLQKPGQSPQLLIYEVSNRFSGVPDRFSGSGSGTDFTLKISRVEAEDVGVYYCSQSTHVPLTFGQGTKVEIK
# Key:
# human CCR5 [1] = molecular target: T1, human CCR5 (Homo sapiens, UniProt P51681); assay: Migration (chemotaxis) assay with CHO-K1-hCCR5 cells, ATPlite readout; type: cell-based; parameters: Production of the full length protein was confirmed by western blot; expressed in transfected cells; host or cells: CHO-K1; settings: for concentrations at which CCL5 induced migration was inhibited: constant dose of CCL5 0.005 μM; for chemotactic response / direct induction of migration, agent alone: single agent over its concentration range (MVC 0.0045-10 μM; CCL5 0.0007-0.50 μM), FIG. 4, FIG. 5
# T1 sequence (P51681 whole entry): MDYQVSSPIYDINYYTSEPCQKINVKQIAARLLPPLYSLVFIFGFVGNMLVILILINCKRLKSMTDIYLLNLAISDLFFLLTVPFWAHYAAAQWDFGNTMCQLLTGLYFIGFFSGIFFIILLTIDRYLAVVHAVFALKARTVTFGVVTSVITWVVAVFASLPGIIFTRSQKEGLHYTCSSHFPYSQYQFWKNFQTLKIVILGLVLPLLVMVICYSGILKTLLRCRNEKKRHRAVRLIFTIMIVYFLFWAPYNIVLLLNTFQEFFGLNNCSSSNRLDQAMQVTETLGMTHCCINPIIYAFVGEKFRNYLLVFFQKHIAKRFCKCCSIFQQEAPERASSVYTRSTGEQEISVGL
# From the text: This experiment was designed to investigate the role of PRO 140 on chemotaxis induced by CCL5 engagement of the CCR5 receptor on CHO-CCR5 target cells (CHO-K1 cell line).
# a. Cell Lines: The CHO-K1 cell line was transfected with a human CCR5 expression plasmid and selected for expression. Production of the full length protein was confirmed by western blot. Fluorescence-activated cell sorting (FACS) analysis was used to sort for cells that expressed CCR5 on the surface and these cells were purified and expanded.
# b. Methods: Migration assays were done in Multiscreen MC plates using CHO-K1-hCCR5 cells in the upper chamber and with media and test agents in the bottom chamber. The agents tested included: PRO 140, Maraviroc (MVC), CCL5, forskolin (FSK), and an IgG4 control as single agents, and PRO 140+CCL5, and Maraviroc+CCL5 as combined agents. The effects on the Chemotaxis Index were measured over a wide concentration range of the test substance. The Chemotaxis Index was calculated as the migration of cells into the lower chamber with a test substance divided by the migration of cells into the lower chamber without the test substance or with a control substance. Migration was measured using the ATPlite assay. All assays were performed in triplicate. Data analysis was determined by the Chemotaxis Index over a wide concentration range of the test substance. Dose ranges of test agents were as follows: PRO 140 was 0.0045-10 ug/ml; MVC was 0.0045-10 μM; CCL5 was 0.0007-0.50 μM; FSK was 0.0045-10 μM; IgG4 control was 0.0045-10 μg/ml.
# human CCR5 [2] = molecular target: T1, human CCR5; assay: cAMP accumulation in primary CD4+ CCR5+ T cells (radioimmunoassay); type: cell-based; parameters: Primary CD4+ cell lines were prepared from healthy human donors and grown for 7-10 days prior to sorting for CD4+ CCR5+ T cells; endogenous in cells; host or cells: primary human CD4+ CCR5+ T cells (PHA/IL-2 expanded PBMC, FACS sorted); settings: for cAMP accumulation (stimulated): single agent with rolipram 20 uM and forskolin 10 uM; for cAMP accumulation (stimulated) / cAMP accumulation (unstimulated, basal): PRO 140 1 ug/ml, CCL5 0.1 uM; for cAMP accumulation (unstimulated, basal): single agent with rolipram 20 uM, 37° C., 10 minutes; for effect on cAMP levels as single agent: single agents, CD4+ CCR5+ T cells
# Protocol: The first set of experiments was designed to see if PRO 140 has antagonist and/or agonist activity for alternative signaling pathways known to be activated downstream of CCR5 engagement, such as G-protein mediated modulation of intracellular cyclic AMP (cAMP) or specific tyrosine kinase activation.
# a. Cell Lines: Primary CD4+ cell lines were prepared from healthy human donors and grown for 7-10 days prior to sorting for CD4+ CCR5+ T cells. PBMC were stimulated with 1 ug/ml of PHA-L Sigma (2E6/well in 24 well plates). PHA lines were expanded using 30 U/ml IL-2 for 24 hours after stimulation and every other day until FACS sorting for CD4+ CCR5+ T cells (on days 7-10). FACS sorting was done using anti-human CD4-percp-Cy5.5 clone RPA-T4, Mouse IgG1k, at 25 ug/ml, with a working concentration of 0.125 ug/ml. Anti-human CCR5-PE clone NP-6G4, Mouse IgG1k, concentration 25 ug/ml, working concentration 1.25 ug/ml was used.
# b. Methods: Cell lines were assayed for cAMP levels in the absence or presence of rolipram (20 uM, a cyclic nucleotide phosphodiesterase-4 (PDF-4) inhibitor) with either no addition (basal cAMP) or in response to forskolin (FSK) (10 uM, a non-specific activator of cAMP synthesis), PRO 140 (1 ug/ml), forskolin+PRO 140, CCL5 (0.1 uM), CCL5+ forskolin, or PRO 140+ CCL5+ forskolin. Incubations (0.5E6 cells/ml) were conducted at 37° C. for 10 minutes and then terminated by addition of ice-cold 7.5% trichloroacetic acid (TCA). cAMP was quantified by radioimmunoassay. Statistical significance was determined by unpaired, one-tailed t test analysis using GraphPad prism software, version 4.0
Molecule,"concentration range in which the chemotactic response was significant (human CCR5 [1]; MVC alone, FIG. 4)",concentrations at which CCL5 induced migration was inhibited (human CCR5 [1]; FIG. 5),"chemotactic response / direct induction of migration, agent alone (human CCR5 [1]; listed as MVC)","chemotactic response / direct induction of migration, agent alone (human CCR5 [1])",cAMP accumulation (stimulated) (human CCR5 [2]; FIG. 2) [fmoles cAMP/0.5E6 cells],"cAMP accumulation (unstimulated, basal) (human CCR5 [2]; no forskolin, FIG. 1) [fmoles cAMP/0.5E6 cells]",effect on cAMP levels as single agent (human CCR5 [2]),"Chemotaxis Index (chemotactic response), agent alone (human CCR5 [1]; FIG. 4, PRO 140 alone, concentration range 0.0045-10 μg/ml)","Chemotaxis Index, agent alone (human CCR5 [1]; FIG. 6, PRO 140 alone, concentration range 0.0045-4.0 μg/ml)",concentrations at which CCL5 induced migration was inhibited (human CCR5 [1]; FIG. 6),effect on CCL5 triggered decrease in cAMP levels (human CCR5 [2]; PRO 140 combined with CCL5),"cAMP accumulation (stimulated) in the presence of CCL5 (human CCR5 [2]; rolipram + PRO 140 1 ug/ml + CCL5 0.1 uM + forskolin 10 uM, FIG. 2) [fmoles cAMP/0.5E6 cells]","cAMP accumulation (unstimulated, basal) in the presence of CCL5 (human CCR5 [2]; rolipram + PRO 140 1 ug/ml + CCL5 0.1 uM, no forskolin, FIG. 1) [fmoles cAMP/0.5E6 cells]"
Maraviroc,above 0.01 μM,above 0.05 μM,significant direct induction of migration,,,,,,,,,,
"CCL5: C-C chemokine ligand 5, inflammatory chemokine also known as RANTES; natural CCR5 ligand [reference compound]",,,,pronounced,3800,60,decreased cAMP levels,,,,,,
B1,,,,,6300,110,no effect on cAMP levels,0,less than 3,above 0.4 μg/ml,diminished the effects of CCL5 on decreasing cAMP,5700,107
